Reference: patent publication US20140288003A1

Molecular target: Smad3
Experiment: cell-based or functional assay

“scleraxis (mouse Scx expressed from pECE-HA-FLAG-Scx) (from UniProt Q64124 1-207)” was tested, and the activation of the collagen 1α2 proximal promoter (luciferase assay, NIH 3T3 fibroblasts co-transfected with Scx and Smad3) was 35 % increase.
